Data taken from the supplement of paper PMC7125110.
± gives the standard error. Fewer inactive variants are shown than the library holds.

B1: glmS ribozyme (parent)
chain: AUAAAAGCGCCAGAACUACAGAAAUGUAGUUGACGAGGAGGAGGUUUAUCGAAUUUUCGGCGGAUGCCUCCAAA

Key:
Conditions in all cases: with glucosamine-6-phosphate
glucosamine-6-phosphate [1] = variants of: B1; experiment: self-cleavage kobs at 640 uM GlcN6P; higher = faster cleavage; RNA array
Procedure, shortened: (§1)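 In situ transcription by E. coli RNA polymerase produced barcoded ribozyme variants on sequenced MiSeq chips, and a hybridised Cy3 probe tracked them at 37 °C. Glucosamine-6-phosphate was flowed in at 40 μM to 10 mM in HEPES/KCl/Mg(OAc)2 buffer. kcat and KM were taken from weighted Michaelis–Menten fits of kobs values from exponential decay fits.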

glucosamine-6-phosphate [2] = variants of: B1; experiment: self-cleavage kobs at 2500 uM GlcN6P; higher = faster cleavage; RNA array
Procedure, shortened: as §1

glucosamine-6-phosphate [3] = variants of: B1; experiment: self-cleavage kobs at 10000 uM GlcN6P; higher = faster cleavage; RNA array
Procedure, shortened: as §1

Variant	self-cleavage kobs at 640 uM GlcN6P (glucosamine-6-phosphate [1])	self-cleavage kobs at 2500 uM GlcN6P (glucosamine-6-phosphate [2])	self-cleavage kobs at 10000 uM GlcN6P (glucosamine-6-phosphate [3])
C16U A39G A53C C68A	< 1e-05 s⁻¹	–	–
G21U U45C C68U	0.000572 ± 0.0001 s⁻¹	0.000312 ± 8e-05 s⁻¹	0.00114 ± 0.00043 s⁻¹
U30G U49A G66C	< 1e-05 s⁻¹	–	–
U30C G43A C71U	< 1e-05 s⁻¹	–	–
G29C G51U C61G C70A	9.9e-05 ± 3.7e-05 s⁻¹	7.11e-05 ± 2.2e-05 s⁻¹	–
U31G C70A	0.000129 ± 2.6e-05 s⁻¹	9.72e-05 ± 2.7e-05 s⁻¹	0.000372 ± 0.00014 s⁻¹
C16U G35U U55A	< 1e-05 s⁻¹	–	–
G29C G35C G38U G51U G59A	< 1e-05 s⁻¹	< 1e-05 s⁻¹	–
U31C A36C U45G U65G C71U	< 1e-05 s⁻¹	< 1e-05 s⁻¹	–
U30C G35U C68U	< 1e-05 s⁻¹	< 1e-05 s⁻¹	–
U30G U31C A39U	0.000202 ± 6.1e-05 s⁻¹	–	0.00122 ± 0.00026 s⁻¹
U30A G43A	< 1e-05 s⁻¹	–	–
U31A G66U C70U	0.00031 ± 6.9e-05 s⁻¹	0.000329 ± 6.7e-05 s⁻¹	–
C16U G51U A64G C68A C71A	< 1e-05 s⁻¹	< 1e-05 s⁻¹	–
G29A C58U C67G	0.000115 ± 2.9e-05 s⁻¹	–	–
G29U A39U G41U U65G	< 1e-05 s⁻¹	< 1e-05 s⁻¹	–
G29C U56A C58A G63U	< 1e-05 s⁻¹	< 1e-05 s⁻¹	–
C16U G32U A36C C58U	< 1e-05 s⁻¹	–	–
U30A G41U A48U	< 1e-05 s⁻¹	< 1e-05 s⁻¹	–
G29C G44C C71U	< 1e-05 s⁻¹	–	–
U31G C50A U56G U69G	0.000115 ± 3.6e-05 s⁻¹	7.11e-05 ± 1.8e-05 s⁻¹	–
U30A U46G C67U	0.000117 ± 3.4e-05 s⁻¹	0.00027 ± 0.0001 s⁻¹	–

Variant	self-cleavage kobs at 640 uM GlcN6P (glucosamine-6-phosphate [1])	self-cleavage kobs at 2500 uM GlcN6P (glucosamine-6-phosphate [2])	self-cleavage kobs at 10000 uM GlcN6P (glucosamine-6-phosphate [3])
C16U U47A G62U	< 1e-05 s⁻¹	–	–
U31C C34A G59U	< 1e-05 s⁻¹	< 1e-05 s⁻¹	–
G21U U46G U49C	< 1e-05 s⁻¹	< 1e-05 s⁻¹	–
C16U G66U C68G	0.000124 ± 4.1e-05 s⁻¹	–	–
U30C G41C C71U	< 1e-05 s⁻¹	–	–
U30A A64U	< 1e-05 s⁻¹	–	–
U30A G60U C71A	< 1e-05 s⁻¹	< 1e-05 s⁻¹	–
G29C U31C G35U	< 1e-05 s⁻¹	< 1e-05 s⁻¹	–
U30A A39C U47C	4.7e-05 ± 1.3e-05 s⁻¹	–	–
U30C G35A C71A	< 1e-05 s⁻¹	–	–
G29U U46C G62C C71G	< 1e-05 s⁻¹	< 1e-05 s⁻¹	–
U31A C50G C61G	0.000119 ± 4.7e-05 s⁻¹	0.000103 ± 3.8e-05 s⁻¹	–
U30A U46G U55G	0.000157 ± 3.5e-05 s⁻¹	0.000349 ± 6.6e-05 s⁻¹	–
G29C G35A G41C G63U C68G	< 1e-05 s⁻¹	–	–
U30G G40C A53G G62C	< 1e-05 s⁻¹	–	–
U30C G59C G63U	< 1e-05 s⁻¹	–	–
G29U C67U C70U	4.16e-05 ± 1.2e-05 s⁻¹	9.35e-05 ± 1.8e-05 s⁻¹	–
G29U G38U U57A G59C	< 1e-05 s⁻¹	–	–
U30C C34G	< 1e-05 s⁻¹	–	< 1e-05 s⁻¹
U31C G44A C50A	< 1e-05 s⁻¹	–	–
U31G C58A G60C	< 1e-05 s⁻¹	< 1e-05 s⁻¹	–
U30G A39C U54G	0.0002 ± 3.1e-05 s⁻¹	0.00053 ± 8.2e-05 s⁻¹	0.00136 ± 0.0002 s⁻¹

Variant	self-cleavage kobs at 640 uM GlcN6P (glucosamine-6-phosphate [1])	self-cleavage kobs at 2500 uM GlcN6P (glucosamine-6-phosphate [2])	self-cleavage kobs at 10000 uM GlcN6P (glucosamine-6-phosphate [3])
U30G G32A G38C U57C U65C	< 1e-05 s⁻¹	< 1e-05 s⁻¹	–
U30G C61U C71G	< 1e-05 s⁻¹	–	–
U31A G32C G60A G66A	< 1e-05 s⁻¹	–	–
U31C U56A	0.00164 ± 0.00028 s⁻¹	0.00201 ± 0.00053 s⁻¹	–
G29A A53G C68G	7.36e-05 ± 2.4e-05 s⁻¹	7.42e-05 ± 2e-05 s⁻¹	–
U31A U69C C71G	8.22e-05 ± 1.8e-05 s⁻¹	6.01e-05 ± 1.7e-05 s⁻¹	3.9e-05 ± 1.6e-05 s⁻¹
G29U A39C G66A	0.000154 ± 3.3e-05 s⁻¹	0.000178 ± 5.1e-05 s⁻¹	–
U30G A33G U57C	< 1e-05 s⁻¹	< 1e-05 s⁻¹	< 1e-05 s⁻¹
G21A C70U	0.00594 ± 0.0022 s⁻¹	0.00398 ± 0.0016 s⁻¹	–
U31C G38A C71U	< 1e-05 s⁻¹	–	–
G29A U46A	0.000116 ± 2.5e-05 s⁻¹	0.000221 ± 4.8e-05 s⁻¹	0.000241 ± 3.6e-05 s⁻¹
U30A A53U C67G	6.37e-05 ± 2.6e-05 s⁻¹	4.68e-05 ± 2.2e-05 s⁻¹	0.000271 ± 6.3e-05 s⁻¹
C16U C58U G63U	< 1e-05 s⁻¹	–	< 1e-05 s⁻¹
C16U G21U G35U C70A	7.72e-05 ± 2.8e-05 s⁻¹	–	–
U30C G38C A42U	< 1e-05 s⁻¹	< 1e-05 s⁻¹	–
G29U G40C A52G C58A C68A	< 1e-05 s⁻¹	< 1e-05 s⁻¹	–
C16U G41A C71A	7.7e-05 ± 2.1e-05 s⁻¹	0.000279 ± 7.1e-05 s⁻¹	–
U30A G32A G37U U49C A64U	< 1e-05 s⁻¹	–	–
G29A G40U G41C	< 1e-05 s⁻¹	–	–
U31G C58G C70G	0.000104 ± 3.4e-05 s⁻¹	–	–
